Laboratory results reported in CN107383198A (ZONHON BIOPHARMA INST INC, dated 2017).
Blank lines part the entries; values can stand above or below the binder they belong to.

Experiments:
[1] = target: T1, 提取于人血浆的胱抑素C (native human cystatin C, HyTest) (human, UniProt P01034 27-146); test: indirect ELISA, CysC (HyTest) coated at 1 μg/mL, hybridoma supernatant, HRP goat anti-mouse IgG
T1 construct: mature; also called CysC; 天然CysC蛋白
T1 sequence (looked up): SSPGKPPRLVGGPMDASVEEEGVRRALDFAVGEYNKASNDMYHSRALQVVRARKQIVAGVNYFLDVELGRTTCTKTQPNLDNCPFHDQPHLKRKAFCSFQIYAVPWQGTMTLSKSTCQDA

[2] = target: T1, 提取于人血浆的胱抑素C (native human cystatin C, …); test: Western blot of native CysC (HyTest) with HRP-labelled scFv

binding result [1]: binds
B1: 抗体M12 (antibody secreted by hybridoma cell line M12) (antibody, V domains shown)
VH: QVQLQQPGSELVRPGTSVKLSCRASGYTFTSYWMHWVKQRHGQGLEWLGNVDPGSGTTNYEENFKTKGTLTVDTSSSTVYMHLSSLTSEDSAVYYCTAGFDYWGQGTTLTVSA
VL: DIQMNQSPSSLSASLGDTITITCHASQNINVWLGWFQQKPENIPKLLIYKASTLHTGVPSRFSGSGSGTVFTLTISSPQPEDIATYYCQQGQTYPLTFGAGTKLEIK
notes: Mouse monoclonal antibody tested as hybridoma culture supernatant and detected with HRP goat anti-mouse IgG

binding result [2]: binds
B2: 单链抗体C12 (anti-human cystatin C scFv C12) (scFv)
scFv: QVQLQQPGSELVRPGTSVKLSCRASGYTFTSYWMHWVKQRHGQGLEWLGNVDPGSGTTNYEENFKTKGTLTVDTSSSTVYMHLSSLTSEDSAVYYCTAGFDYWGQGTTLTVSAGGGGSGGGGSGGGGSDIQMNQSPSSLSASLGDTITITCHASQNINVWLGWFQQKPENIPKLLIYKASTLHTGVPSRFSGSGSGTVFTLTISSPQPEDIATYYCQQGQTYPLTFGAGTKLEIK
notes: Used HRP-labelled in the Western blot and colloidal-gold-labelled in the test card; also called C12-scFv-(HIS)6; C12-HRP
